From PMC5138847 (Scientific Reports, 2016)
Where a chain is given by its changes, count along the chain named. Numbers in names are those of the source.

B1: DrUox (zebrafish urate oxidase, uricase) (Danio rerio) (protein)
chain: MATTSNQNVEFVRTGYGKNMVKVLHIRREGNHHHIIELIANVQLTLKTRKDYLTGDNSDIIPTDTVKNTVHALAKLKGIKSIESFALDICEHFLTAFNHVTRVKVNIDEVPWKRLEKNGVEHNHAFIHCPEALRFCEAEQYLSKTPVVHSGLKDMKVLKTTQTGFEGFLRDRFTTLTDAKDRFFCTSVYARWRYNTINVAFDAAWKAVKDTVIQKFAGPYDRGEYSPSVQKTLYDTQLLVLDRIPEVEEIEIIMPNQHYFVIDMTKIGLSNKDEVYLPLDNPSGNITGTVCRKPRARM
B2: zebrafish urate oxidase F216S mutant, His-tagged (enzyme, zebrafish (Danio rerio), UniProt Q6DG85 1-298, looked up)
chain: B1 chain with F216S
notes: also called F216S DrUox; mutant DrUox; source: E. coli BL21-CodonPlus(DE3), purified (Talon cobalt resin)
B3: zebrafish (Danio rerio) urate oxidase, untagged wild type (enzyme, UniProt Q6DG85 1-298, looked up)
chain: B1 chain
notes: cDNA IMAGE:100059545; In the crystal, electron density runs from Gly8 to Pro294; Cys129 forms an inter-subunit disulfide (chains A-C and B-D); also called DrUox; Uox; source: E. coli BL21-CodonPlus(DE3), purified (xanthine-agarose column, eluted with urate)
B4: zebrafish urate oxidase, His-tagged wild type (enzyme, zebrafish (Danio rerio), UniProt Q6DG85 1-298, looked up)
chain: B1 chain
notes: also called wt DrUox; His-tagged wt; source: E. coli BL21-CodonPlus(DE3), purified (Talon cobalt resin)

Experiments:
[1] = target: T1, DrUox (zebrafish urate oxidase, uricase) (Danio rerio, UniProt Q6DG85, F216S); assay: UV absorbance at […] nm, global fit to competitive inhibition; type: biochemical; conditions: read-out: Xanthine / Ki
T1 construct: gene uox; full length, 298 aa; N-terminal 6xHis tag (pET28b) for wt and F216S kinetics, untagged for crystals; E. coli BL21-CodonPlus(DE3); homotetramer
T1 sequence (Q6DG85 1-298 F216S): B1 chain with F216S

[2] = target: T2, DrUox (zebrafish urate oxidase, uricase) (Danio rerio, UniProt Q6DG85); assay: UV absorbance, global fit to competitive inhibition; type: biochemical; conditions: read-out: Xanthine / Ki
T2 construct: gene uox; full length, 298 aa; N-terminal 6xHis tag (pET28b) for wt and F216S kinetics, untagged for crystals; E. coli BL21-CodonPlus(DE3); homotetramer
T2 sequence (Q6DG85 1-298): B1 chain

purified protein = substrate: O=c1[nH]c(=O)c2[nH]c(=O)[nH]c2[nH]1; assay: purified protein; conditions: 100 mM potassium phosphate pH 7.6, 25 °C, equimolar DrUrah
[3] = target: the molecule itself; assay: SEC; HPLC-SEC on a Superdex 200 increase 3.2/300 column, native conditions, about 13 ug of each sample, elution monitored at 280 nm, calibrated with standards
[4] = target: the molecule itself; assay: crystal structure; untagged DrUox 10 mg/ml (10 mM Tris-HCl pH 7.6, 1 mM EDTA), crystallised in 0.1 M Tris-HCl pH 8.5, 8% PEG 8000; space group P21, two tetramers in the asymmetric unit; 2.8 A

Row | Molecule | Km (purified protein) [µM] | kcat (purified protein) [s⁻¹] | kcat/Km (purified protein) [M⁻¹ s⁻¹] | stoichiometry N [3] | also measured
1 | O=c1[nH]c(=O)c2[nH]cnc2[nH]1 [xanthine] |  |  |  |  | Ki [1]: 59.2 ± 8.2 µM; Ki [2]: 4.3 ± 0.27 µM
2 | B1 | 11 ± 1 | 3.95 | 360000 |  | 
3 | B2 | 284 ± 31 | 3.99 | 14000 | 4 | 
4 | B3 |  |  |  |  | stoichiometry N [4]: 4
5 | B4 |  |  |  | 4 | 
